One block for each substance: values may come before it.
Key:
[1] = target: naïve EcHsp60 K266A (Epinephelus coioides (grouper)); experiment: SEC; WT and mutated naïve EcHsp60 purified at 4°C; analytical Superdex 200 Increase 10/300 GL
[2] = target: naïve EcHsp60 R264AK266A (Epinephelus coioides (grouper)); experiment: negative-stain TEM with single particle analysis; purified oligomeric EcHSP60 at 1 mg/ml, 2% uranyl acetate, 2D classification
[3] = target: naïve EcHsp60 R264AK266A (Epinephelus coioides (grouper)); experiment: SEC; WT and mutated naïve EcHsp60 purified at 4°C; analytical Superdex 200 Increase 10/300 GL
[4] = target: mature Epinephelus coioides mtHsp60 (EcHsp60), without the mitochondrial importing signal (Epinephelus coioides (grouper)); experiment: cross-linking; dimeric EcHsp60 at 0.6 mg/ml, BS^3 0.15 to 0.6 mM, 37°C 30 min, phosphate buffer pH 7.6 with 300 mM NaCl, SDS-PAGE
[5] = target: mature Epinephelus coioides mtHsp60 (EcHsp60), without the mitochondrial importing signal (Epinephelus coioides (grouper)); experiment: SEC; protein homogenised and purified at room temperature (RT, 25°C); Superdex S200pg 16/600, 25 mM Tris-HCl pH 7.6, 150 mM NaCl, 1 ml/min
[6] = target: mature Epinephelus coioides mtHsp60 (EcHsp60), without the mitochondrial importing signal (Epinephelus coioides (grouper)); experiment: negative-stain TEM with single particle analysis; purified oligomeric EcHSP60 at 1 mg/ml, 2% uranyl acetate, 2D classification
[7] = target: mature Epinephelus coioides mtHsp60 (EcHsp60), without the mitochondrial importing signal (Epinephelus coioides (grouper)); experiment: SEC; protein homogenised and purified at 4°C (LT); Superdex S200pg 16/600, 25 mM Tris-HCl pH 7.6, 150 mM NaCl, 1 ml/min

stoichiometry N [1]: 7
Substance: naïve EcHsp60 K266A (natural protein)

stoichiometry N [2]: 7
stoichiometry N [3]: 7
Substance: naïve EcHsp60 R264AK266A (natural protein)

stoichiometry N [4]: 2
stoichiometry N [5]: 7
stoichiometry N [6]: 7
stoichiometry N [7]: 2
Substance: mature Epinephelus coioides mtHsp60 (EcHsp60), without the mitochondrial importing signal (natural protein)

From publication PMC10053435
